The target of this assay is full-length polo-like kinase 1 (Plk1) (UniProt P53350 1-603). As to the kind of experiment: ELISA. For orientation: An ELISA detects its analyte on a solid surface through an enzyme-linked reagent.

Square brackets hold non-standard residues; d marks the D form. Ends that are not written are not given here. His(π-(CH2)8Ph) = N[C@@H](Cc1cncn1CCCCCCCCc1ccccc1)C(=O)O; pT = C[C@@H](OP(=O)(O)O)[C@H](N)C(=O)O

Sequence of full-length polo-like kinase 1 (Plk1) (P53350 whole entry): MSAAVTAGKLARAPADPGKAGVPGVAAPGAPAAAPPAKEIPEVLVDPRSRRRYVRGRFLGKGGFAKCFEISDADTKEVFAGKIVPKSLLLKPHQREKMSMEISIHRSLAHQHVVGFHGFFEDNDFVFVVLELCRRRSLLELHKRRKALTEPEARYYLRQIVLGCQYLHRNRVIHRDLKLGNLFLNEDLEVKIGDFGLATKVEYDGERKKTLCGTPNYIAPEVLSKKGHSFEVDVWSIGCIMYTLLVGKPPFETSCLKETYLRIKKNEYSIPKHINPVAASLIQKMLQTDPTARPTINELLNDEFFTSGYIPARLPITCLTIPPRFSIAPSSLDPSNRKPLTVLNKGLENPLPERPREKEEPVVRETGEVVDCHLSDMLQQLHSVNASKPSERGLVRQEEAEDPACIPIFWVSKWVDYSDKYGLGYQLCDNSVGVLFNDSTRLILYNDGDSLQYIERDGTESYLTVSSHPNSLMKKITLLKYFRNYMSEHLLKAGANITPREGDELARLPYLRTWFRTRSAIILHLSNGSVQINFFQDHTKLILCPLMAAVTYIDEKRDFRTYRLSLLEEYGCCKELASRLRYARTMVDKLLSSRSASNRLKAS

PL[His(π-(CH2)8Ph)]S[pT] [PLH*SpT (2a)]: inhibition was half-maximal at 181 nM (IC50).

The record behind these values is paper PMC5573662 (Bioorganic & medicinal chemistry, 2017).
